Laboratory results: publication PMC3448610

Tests used:
[1] = biological target: T1, wild-type human Macrophage Migration Inhibitory Factor (human), P14174; experiment: AUC; sedimentation velocity, 50,000 rpm, 20°C, PBS 1X pH 7.4, protein 5-50 µM (15 µM in Figure 3); c(s) analysis with SEDFIT; oligomeric state of the protein with itself; conditions: remark: other sources report otherwise
T1 chain: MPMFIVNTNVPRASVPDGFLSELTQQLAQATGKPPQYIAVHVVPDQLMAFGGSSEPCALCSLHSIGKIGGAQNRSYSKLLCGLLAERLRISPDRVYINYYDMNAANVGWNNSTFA

[2] = biological target: T1, wild-type human Macrophage Migration …; experiment: static light scattering (multi-angle); purified MIF 20-30 µM in PBS 1X, room temperature, DAWN HELEOS II with UV and refractive index detectors; oligomeric state of the protein with itself; conditions: remark: other sources report otherwise

B1: wild-type human Macrophage Migration Inhibitory Factor, P14174 1-115 (natural protein)
chain: MPMFIVNTNVPRASVPDGFLSELTQQLAQATGKPPQYIAVHVVPDQLMAFGGSSEPCALCSLHSIGKIGGAQNRSYSKLLCGLLAERLRISPDRVYINYYDMNAANVGWNNSTFA
- stoichiometry N [1]: 3
- stoichiometry N [2]: 3
